Test results as given in publication PMC4805503 (Traffic (Copenhagen, Denmark), 2016).
Each block holds one molecule with its values, some of them ahead of it.

Tests used:
tepsin (Homo sapiens) = tepsin (Homo sapiens) (UniProt Q96N21); conditions: cited from earlier work
[1] = biological target: T1, AP4 β4 C-terminal appendage domain (residues 612–739), wild type (UniProt Q9Y6B7 612-739); assay: ITC
T1 sequence (looked up): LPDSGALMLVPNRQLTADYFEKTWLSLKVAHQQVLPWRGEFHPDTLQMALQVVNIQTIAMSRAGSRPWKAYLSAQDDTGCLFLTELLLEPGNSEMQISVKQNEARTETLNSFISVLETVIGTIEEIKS

[2] = biological target: T1, AP4 β4 C-terminal appendage domain …; assay: pull-down

Molecule: AP4 ε appendage domain (from UniProt Q9UPM8)
Kd (tepsin (Homo sapiens)): 3000 nM

Kd [1]: 2900 nM
stoichiometry N [1]: 1
B1: tepsin C-terminal fragment (residues 450–500), GST removed (domain or fragment, UniProt Q96N21 450-500, looked up)
chain: PGGTDSPKRGPSSCAWSRDSLFAGMELVACPRLVGAGAAAGESCPDAPRAP

Kd [1]: > 300000 nM
B2: tepsin fragment (residues 450–500) G473I/M474Q, GST removed (domain or fragment, UniProt Q96N21 450-500, looked up)
chain: PGGTDSPKRGPSSCAWSRDSLFAIQELVACPRLVGAGAAAGESCPDAPRAP

Kd [1]: > 300000 nM
B3: tepsin fragment (residues 450–500) L470S/F471S, GST removed (domain or fragment, UniProt Q96N21 450-500, looked up)
chain: PGGTDSPKRGPSSCAWSRDSSSAGMELVACPRLVGAGAAAGESCPDAPRAP

fold weaker binding than wild type [1]: ~15 fold
B4: tepsin fragment (residues 450–500) L476S/V477S, GST removed (domain or fragment, UniProt Q96N21 450-500, looked up)
chain: PGGTDSPKRGPSSCAWSRDSLFAGMESSACPRLVGAGAAAGESCPDAPRAP

binding result [2]: binds
B5: GST-tepsin (residues 450–525) (domain or fragment, UniProt Q96N21 450-525, looked up)
chain: PGGTDSPKRGPSSCAWSRDSLFAGMELVACPRLVGAGAAAGESCPDAPRAPQTSSQRTAAKEPPGSEPSAFAFLNA
